In paper PMC6868437:
Each block holds one molecule with its values, some of them ahead of it.

How the values were obtained:
Assay in all cases: pull-down
[1] = target: GST-Rps3, wt (yeast (S. cerevisiae)) (UniProt P05750)
[2] = target: rps3-R116D fused to GST (yeast (S. cerevisiae)) (UniProt P05750)
[3] = target: GST-a/tif32-CTD-box32 (yeast (S. cerevisiae)) (UniProt P38249)
[4] = target: GST-a/tif32-CTD-box33 (yeast (S. cerevisiae)) (UniProt P38249)

- reduction of binding against wt full-length a/Tif32 [1]: 50%
- reduction of binding against GST-Rps3 wt [2]: 35%
- reduction of binding against wt full-length a/Tif32 [2]: 50%
Molecule: [35S]-labelled full-length a/Tif32 with box32 (from UniProt P38249 1-964) (natural protein)

- reduction of binding against the wt a/Tif32-CTD [3]: 80%
- reduction of binding against the wt a/Tif32-CTD [4]: 80%
B1: [35S]-labelled uS3/Rps3, wt (natural protein)
chain: MVALISKKRKLVADGVFYAELNEFFTRELAEEGYSGVEVRVTPTKTEVIIRATRTQDVLGENGRRINELTLLVQKRFKYAPGTIVLYAERVQDRGLSAVAQAESMKFKLLNGLAIRRAAYGVVRYVMESGAKGCEVVVSGKLRAARAKAMKFADGFLIHSGQPVNDFIDTATRHVLMRQGVLGIKVKIMRDPAKSRTGPKALPDAVTIIEPKEEEPILAPSVKDYRPAEETEAQAEPVEA
modifications: [35S]-labelled
